Patent publication US20250340659A1 (PETMEDIX, published 2025)

T1: recombinant canine OX40L ECD-TNCc-HIS protein (canine)
T1 construct: also called Trimeric OX40L probe (HIS tag); trimeric canine OX40L
T1 chain: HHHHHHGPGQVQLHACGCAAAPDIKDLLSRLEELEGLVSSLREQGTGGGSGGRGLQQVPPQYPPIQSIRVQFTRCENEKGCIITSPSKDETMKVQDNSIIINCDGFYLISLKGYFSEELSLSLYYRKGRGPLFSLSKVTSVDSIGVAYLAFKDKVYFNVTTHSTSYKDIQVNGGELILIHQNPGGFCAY

T2: canine OX40L, full length membrane form, expressed on HEK293 cells (canine)
T2 construct: also called OX40L expressing HEK; HEK OX40L cells
T2 chain: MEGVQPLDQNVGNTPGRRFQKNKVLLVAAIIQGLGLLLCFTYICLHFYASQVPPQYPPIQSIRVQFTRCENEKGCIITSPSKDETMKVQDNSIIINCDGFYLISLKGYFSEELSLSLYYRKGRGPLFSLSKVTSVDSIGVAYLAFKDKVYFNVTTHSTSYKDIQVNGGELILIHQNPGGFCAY


Columns and labels:
[1] = target: T1, recombinant canine OX40L ECD-TNCc-HIS …; test: SPR Koff (kd2)
Procedure, shortened: (§1)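 Purified antigen amine-coupled at low density to a CM5 chip; candidate antibodies injected as analyte over a concentration range. Kinetic curves fitted with a bivalent analyte model to give functional affinity and dissociation rates.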

[2] = target: T1, recombinant canine OX40L ECD-TNCc-HIS …; test: SPR KD1, bivalent analyte model
Procedure, shortened: as §1

[3] = target: T1, recombinant canine OX40L ECD-TNCc-HIS …; test: SPR Koff (kd1)
Procedure, shortened: as §1

[4] = target: T2, canine OX40L, full length membrane …; test: flow cytometry
Procedure, shortened: (§2)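 CHO supernatants at 1, 5 or 10 μg/ml in PBS/3% FBS incubated 30′ on ice with cells surface-expressing canine OX40L. Bound antibody detected with fluorescent anti-canine Fc secondary (1:1000, 30 min, dark) and measured by flow cytometry, with parental WT HEK signal subtracted where stated.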

[5] = target: T2, canine OX40L, full length membrane …; test: flow cytometry, OX40L HEK minus WT HEK
Procedure, shortened: as §2

[6] = target: T2, canine OX40L, full length membrane …; test: cell-based or functional assay

| Binder | koff [1] | Kd [2] | koff [3] | GEO mean OX40L expressing HEK [4] | GEO mean difference [5] | % Signal Inhibition Average [6] | % Signal Inhibition Rep1 [6] | % Signal Inhibition Rep2 [6] | % Signal Inhibition Rep3 [6] |
| --- | --- | --- | --- | --- | --- | --- | --- | --- | --- |
| PMX045 (antibody, V domains shown, also called PMX45) VH: EVQLVESGGDLVKPGGSLRLSCVASGFTFSSYHMTWVRQAPGKGLQWVAYITSGGITTSYADAVKGRFTISRDNAKNTLYLQMSSLRAEDTAMYYCARDLVLLLGGADYWGQGTLVTVSS VL: SYELTQPPSVNVTLRETAHITCGGDSIGRKYVQWIQQNPGQAPVVIIYKDSNRPTGIPERFSGANSGNTATLTISGALAEDEADYYCQVGDSGTKAVFGGGTHLTVL | 0.000554 s⁻¹ | 10.4 nM | 0.00484 s⁻¹ | 1.47e+06 | 1.44e+06 | 75.9% | 79.9% | 81.7% | 66.2% |
| PMX064 (antibody, V domains shown, also called PMX64) VH: EVQLVESGGDLVKPGGSLRLSCVASGFTFSSYHMSWVRQAPGKGLQWVAYITSGGITTSYADAVKGRFTISRDNAKNTLYLQMNSLRAEDTAVYYCASDLVLILGGADYWGQGTLVTVSS VL: SYELTQPPSVNVTLSETAHITCGGDSIGRKYVQWIQQNPGQAPVVIIYKDSNRPTGIPERFSGANSGNTATLTISGALAEDEADYYCQVGDSGTKAVFGGGTHLTVL | 0.000921 s⁻¹ | 145 nM | 0.0352 s⁻¹ | 3.45e+06 | 3.42e+06 | 91.1% | 88.9% | 94.8% | 89.7% |
| PMX060 (antibody, V domains shown, also called PMX60) VH: EVQLVESGGDLMKPGGSLRLSCVASGFTFSSFPMSWVRQAPGKGLQWVAYIHSGGSSTSYADAVKGRFTISRDNAKNTLYLQMNSLRAEDTAIYYCARTFPTVAADNWFYYWGQGTLVTVSS VL: SYVLTQLPSKNVTLKQAAHITCGGDNIGSKSVHWYQQKLGQAPVLIIYYDSSRPTGIPERFSGANSGNTATLTISGALAEDEADYYCQVWDSSAKWVFGEGTQLTVL | 0.000925 s⁻¹ | 70.9 nM | 0.00933 s⁻¹ | 3.1e+06 | 3.07e+06 | 66.1% | 58.9% | 68.4% | 71.1% |
| PMX061 (antibody, V domains shown, also called PMX61) VH: EVQLVESGGDLVKPGGSLRLSCVASGFTFSSFPMSWVRQAPGKGLQWVAYINSGGSSTSYADVVKGRFTISRDNAKNTLYLQMNSLRADDTAVYYCARTFPTVATDNWFYYWGQGTLVTVSS VL: SYVLTQLPSKNVTLKQAAHITCGGDNIGSKSVHWYQQKLGQAPVLIIYYDSSRPTGIPERFSGANSGNTATLTISGALAEDEADYYCQVWDSSAKWVFGEGTQLTVL | 0.000729 s⁻¹ | 89.6 nM | 0.00746 s⁻¹ | 3.29e+06 | 3.26e+06 | 56.1% | 51% | 61.6% | 55.7% |
| PMX063 (antibody, V domains shown, also called PMX63) VH: EVQLVESGGDLVRPGGSLRLSCVASGFTFNNYHMSWVRQAPGKGLQWVAFINSGGSGTTFADVVRGRFTISRDYAKNALYLQMNSLRAEDTAVYYCASGSIWTHFDYWGQGTLVTVSS VL: SFVLTQLPSVSVTLRQTARITCGGDIIGSKNVYWYQQRLGQAPVLIIYRDNNRPTGIPERFSGASSGNTATLTISGALAEDEADYYCQVWDNSNKAMFGGGTHLTVL | 5.21 s⁻¹ | 0.271 nM | 9.05e-05 s⁻¹ | 3.18e+06 | 3.15e+06 | 74.4% | 68.3% | 83% | 72% |
